{"source": "paper PMC11751504", "key": {"[1]": {"biological_target": "SidF C-trim (residues 1-443) (Aspergillus fumigatus) (UniProt Q4WF55)", "experiment": "SEC"}, "[2]": {"biological_target": "SidF C-trim (residues 1-443) (Aspergillus fumigatus) (UniProt Q4WF55)", "experiment": "SAXS"}}}
{"substance": "SidF C-trim (residues 1-443) (from UniProt Q4WF55 1-443) (domain or fragment)", "values": [{"measurement": "stoichiometry N", "setting": "[1]", "value": 4}, {"measurement": "stoichiometry N", "setting": "[2]", "value": 2}]}
